From patent US12503511 (COMPASS THERAPEUTICS, dated 2025)

Columns and labels:
[1] = target: T1, cyno PD-1 expressed on cells (cynomolgus); assay: cell binding EC50 on CHO-cyno PD-1; fold improvement over parent mAb25
T1 construct: whole, on cells; also called cyPD-1; cynomolgus PD-1

[2] = target: T1, cyno PD-1 expressed on cells; assay: cell binding titration (MFI) on CHO cells expressing cynomolgus PD-1, panel titled 'Cell Binding: CHO/CyPD-1'
[3] = target: T2, murine PD-1 expressed on cells (murine, UniProt Q02242 25-288); assay: cell binding titration (MFI) on CHO cells expressing mouse PD-1, panel titled 'Cell Binding: CHO/MsPD-1'
T2 construct: whole, on cells; also called muPD-1; mouse PD-1
T2 sequence (looked up): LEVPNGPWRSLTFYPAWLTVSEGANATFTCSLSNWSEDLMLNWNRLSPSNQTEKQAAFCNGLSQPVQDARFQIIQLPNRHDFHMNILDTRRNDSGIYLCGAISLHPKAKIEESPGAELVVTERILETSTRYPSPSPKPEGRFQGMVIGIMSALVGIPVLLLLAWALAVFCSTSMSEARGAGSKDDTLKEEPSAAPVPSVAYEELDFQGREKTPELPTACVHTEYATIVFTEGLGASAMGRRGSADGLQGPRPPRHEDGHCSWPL

[4] = target: T3, purified recombinant His tagged human PD-1 (human, UniProt Q15116 25-170); assay: SPR (Carterra MX96), antibody on chip, His-tagged human PD-1 injected
T3 construct: not shown: His tag
T3 sequence (Q15116 25-170 limits assumed): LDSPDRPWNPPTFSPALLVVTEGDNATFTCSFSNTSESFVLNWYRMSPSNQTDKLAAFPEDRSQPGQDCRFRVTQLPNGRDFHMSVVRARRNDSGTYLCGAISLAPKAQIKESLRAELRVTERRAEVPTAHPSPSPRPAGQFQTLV

[5] = target: T1, cyno PD-1 expressed on cells; assay: cell binding titration, CHO cells expressing cyno PD-1
[6] = target: T4, human PD-1 expressed on cells (human, UniProt Q15116 25-288); assay: cell binding titration, CHO cells expressing human PD-1
T4 construct: also called huPD-1; CHO cells expressing human PD-1
T4 sequence (Q15116 25-288 limits assumed): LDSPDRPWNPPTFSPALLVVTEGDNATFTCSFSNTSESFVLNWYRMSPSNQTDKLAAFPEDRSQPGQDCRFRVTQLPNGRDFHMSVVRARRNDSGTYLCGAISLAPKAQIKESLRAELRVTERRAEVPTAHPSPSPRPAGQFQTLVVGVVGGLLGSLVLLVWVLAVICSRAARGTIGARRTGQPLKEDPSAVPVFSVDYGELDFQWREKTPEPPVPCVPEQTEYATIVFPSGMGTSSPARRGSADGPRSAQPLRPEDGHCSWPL

[7] = target: T2, murine PD-1 expressed on cells; assay: cell binding titration, CHO cells expressing murine PD-1
[8] = target: T4, human PD-1 expressed on cells; assay: cell binding titration (MFI) on CHO cells expressing human PD-1, panel titled 'Cell Binding: CHO/HuPD-1'
[9] = target: T3, purified recombinant His tagged human …; assay: SPR KD; fold improvement over parent mAb25
[10] = target: T4, human PD-1 expressed on cells; assay: cell binding EC50 on CHO-human PD-1; fold improvement over parent mAb25
[11] = target: T5, purified recombinant His tagged human PD-L1 (human, UniProt Q9NZQ7 19-238); assay: SPR (Carterra MX96), antibody on chip, His-tagged human PD-L1 injected
T5 construct: not shown: His tag
T5 sequence (Q9NZQ7 19-238 limits assumed): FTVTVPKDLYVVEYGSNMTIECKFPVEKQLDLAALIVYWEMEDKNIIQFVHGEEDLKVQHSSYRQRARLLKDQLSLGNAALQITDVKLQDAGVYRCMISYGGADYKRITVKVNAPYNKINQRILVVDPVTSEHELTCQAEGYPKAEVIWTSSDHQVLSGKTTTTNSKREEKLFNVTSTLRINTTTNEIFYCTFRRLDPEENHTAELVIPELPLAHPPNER

[12] = target: T6, cyno PD-L1 expressed on cells (cynomolgus); assay: cell binding EC50 on HEK-cyno PD-L1; fold improvement, reference taken as parent mAb24
T6 construct: whole, on cells; also called cynomolgus PD-L1

[13] = target: T6, cyno PD-L1 expressed on cells; assay: cell binding titration (MFI); binder and target taken from the legend paragraph 94 and paragraph 377 (parental clone mAb1, CHO cells expressing cynomolgus PD-L1); the panel itself prints 'mAb28' and 'CHO/CyPD-1'
[14] = target: T5, purified recombinant His tagged human …; assay: SPR KD; fold improvement, reference taken as parent mAb24
[15] = target: T7, murine PD-L1 expressed on cells (murine, UniProt Q9EP73 19-290); assay: cell binding EC50 on A20-murine PD-L1; fold improvement, reference taken as parent mAb24
T7 construct: whole, on cells; also called muPDL1; mouse PD-L1
T7 sequence (Q9EP73 19-290): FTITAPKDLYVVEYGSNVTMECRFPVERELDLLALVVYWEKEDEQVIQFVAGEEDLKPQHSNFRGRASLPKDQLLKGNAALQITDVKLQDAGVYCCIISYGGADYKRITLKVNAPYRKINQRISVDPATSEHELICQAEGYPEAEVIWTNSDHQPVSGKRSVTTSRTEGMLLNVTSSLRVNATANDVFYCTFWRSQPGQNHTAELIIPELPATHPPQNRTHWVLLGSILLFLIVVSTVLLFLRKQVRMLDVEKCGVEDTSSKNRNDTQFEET

[16] = target: T6, cyno PD-L1 expressed on cells; assay: cell binding titration, HEK cells expressing cyno PD-L1
[17] = target: T7, murine PD-L1 expressed on cells; assay: cell binding titration, A20 cells expressing murine PD-L1
[18] = target: T8, human PD-L1 expressed on cells (human, UniProt Q9NZQ7 19-290); assay: cell binding EC50 on HEK-human PD-L1; fold improvement, reference taken as parent mAb24
T8 construct: also called huPDL1; human PD-L1 on HEK cells
T8 sequence (Q9NZQ7 19-290 limits assumed): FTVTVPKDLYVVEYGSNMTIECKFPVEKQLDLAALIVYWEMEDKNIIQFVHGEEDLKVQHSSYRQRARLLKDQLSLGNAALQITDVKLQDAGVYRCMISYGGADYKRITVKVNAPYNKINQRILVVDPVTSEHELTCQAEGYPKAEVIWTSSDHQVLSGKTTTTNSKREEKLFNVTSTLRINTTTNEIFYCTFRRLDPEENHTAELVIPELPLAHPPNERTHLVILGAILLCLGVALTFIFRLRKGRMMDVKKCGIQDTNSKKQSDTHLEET

[19] = target: T8, human PD-L1 expressed on cells; assay: cell binding titration (MFI); binder and target taken from the legend paragraph 94 and paragraph 377 (parental clone mAb1, CHO cells expressing human PD-L1); the panel itself prints 'mAb28' and 'CHO/HuPD-1'
[20] = target: T8, human PD-L1 expressed on cells; assay: cell binding titration, HEK cells expressing human PD-L1

Row | Binder | Kd [11] [nM] | Fold Improvement [12] [fold] | Fold Improvement [14] [fold] | Fold Improvement [15] [fold] | EC50 [16] [nM] | EC50 [17] [nM] | Fold Improvement [18] [fold] | EC50 [20] [nM] | other results
1 | mAb28 (antibody, V domains shown, also called parental clone mAb28; anti-PD-1 IgG1 antibody (mAb28)) VH: EVQLLESGGGLVQPGGSLRLSCAASGFTFSSYAMLWVRQAPGKGLEWVSAISNSGTYTYYADSVKGRFTISRDNSKNTLYLQMNSLRAEDTAVYYCARGLDFIVGYTGNDYWGQGTLVTVSS VL: not shown |  |  |  |  |  |  |  |  | Fold improvement over Parent [1]: 5.8 fold; EC50 (read off the curve) [2]: ~400 pM; EC50 (read off the curve) [3]: ~300 pM; Kd [4]: 5.6 nM; EC50 [5]: 1.48 nM; EC50 [6]: 3.94 nM; EC50 [7]: 0.814 nM; EC50 (read off the curve) [8]: ~600 pM; Fold improvement over Parent [9]: 43 fold; Fold improvement over Parent [10]: 0.2 fold
2 | mAb1 (antibody, V domains shown, also called parental clone mAb1; anti-PD-L1 antibody mAb1) VH: QVQLVQSGAEVKKPGSSVKVSCKASGGTFSSYAINWVRQAPGQGLEWMGGIIPILGAATYAQKFQGRVTITADESTSTAYMELSSLRSEDTAVYYCARLKGELKDAFDIWGQGTLVTVSS VL: not shown | 4.16 | 3.21 | 1.1 | 5.26 | 0.09 | 0.74 | 3.3 | 0.04 | EC50 (read off the curve) [13]: ~40 pM; EC50 (read off the curve) [19]: ~100 pM
3 | mAb10 (antibody, V domains shown) VH: QVQLVQSGAEVKKPGSSVKVSCKASGGTFSSYAINWVRQAPGQGLEWMGGIIPVFGTATYAQKFQGRVTITADESTSTAYMELSSLRSEDTAVYYCARLKNELKDAFDIWGQGTLVTVSS VL: not shown | 6.3 | 3.05 | 0.7 |  | 0.09 |  | 3.2 | 0.04 | binding result [17]: no binding
4 | mAb18 (antibody, V domains shown) VH: QVQLVQSGAEVKKPGSSVKVSCKASGGTFSSYAINWVRQAPGQGLEWMGGIIPILGTATYAQKFQGRVTITADESTSTAYMELSSLRSEDTAVYYCARRKGELKDAFDIWGQGTLVTVSS VL: not shown | 527 | 4.96 |  | 4.67 | 0.06 | 0.84 | 0.4 | 0.38 | 
5 | mAb2 (antibody, V domains shown) VH: QVQLVQSGAEVKKPGSSVKVSCKASGGTFSSYAINWVRQAPGQGLEWMGGIIPVFGTATYAQKFQGRVTITADESTSTAYMELSSLRSEDTAVYYCARLKGELKDAFDIWGQGTMVTVSS VL: not shown | 2.2 | 3.76 | 2 | 1.96 | 0.08 | 2 | 2.2 | 0.06 | 
6 | mAb3 (antibody, V domains shown) VH: QVQLVQSGAEVKKPGSSVKVSCKASGGTFSSYAINWVRQAPGQGLEWMGGIIPVFGTATYAQKFQGRVTITADESTSTAYMELSSLRSEDTAVYYCARLKGELKDAFDIWGQGTMVTVSS VL: not shown | 0.9 |  | 4.8 | 3.08 |  | 1.27 | 1.3 | 0.11 | 
7 | mAb20 (antibody, V domains shown) VH: QVQLVQSGAEVKKPGSSVKVSCKASGGTFSSYAINWVRQAPGQGLEWMGGIIPIFGKATYAQKFQGRVTITADESTSTAYMELSSLRSEDTAVYYCARRKGELKDAFDIWGQGTLVTVSS VL: not shown | 53.9 | 2.31 | 0.1 | 1.47 | 0.12 | 2.66 | 1 | 0.13 | 
